Results: IntAct's records for PubMed 25619834

B1: Influenza virus NS1A-binding protein (Homo sapiens), Q9Y6Y0 (parent)
chain: MIPNGYLMFEDENFIESSVAKLNALRKSGQFCDVRLQVCGHEMLAHRAVLACCSPYLFEIFNSDSDPHGISHVKFDDLNPEAVEVLLNYAYTAQLKADKELVKDVYSAAKKLKMDRVKQVCGDYLLSRMDVTSCISYRNFASCMGDSRLLNKVDAYIQEHLLQISEEEEFLKLPRLKLEVMLEDNVCLPSNGKLYTKVINWVQRSIWENGDSLEELMEEVQTLYYSADHKLLDGNLLDGQAEVFGSDDDHIQFVQKKPPRENGHKQISSSSTGCLSSPNATVQSPKHEWKIVASEKTSNNTYLCLAVLDGIFCVIFLHGRNSPQSSPTSTPKLSKSLSFEMQQDELIEKPMSPMQYARSGLGTAEMNGKLIAAGGYNREECLRTVECYNPHTDHWSFLAPMRTPRARFQMAVLMGQLYVVGGSNGHSDDLSCGEMYDSNIDDWIPVPELRTNRCNAGVCALNGKLYIVGGSDPYGQKGLKNCDVFDPVTKLWTSCAPLNIRRHQSAVCELGGYLYIIGGAESWNCLNTVERYNPENNTWTLIAPMNVARRGAGVAVLNGKLFVCGGFDGSHAISCVEMYDPTRNEWKMMGNMTSPRSNAGIATVGNTIYAVGGFDGNEFLNTVEVYNLESNEWSPYTKIFQF

Variants of: B1
Conditions: with cul3_human CUL3, Q13618

| Variant | effect of a mutation on the interaction |
| --- | --- |
| M114L | causing an interaction |
| F75L | causing an interaction |
